Test results from patent US20090136507A1 (published 2009).

Columns and labels:
Assay in all cases: yeast two-hybrid screens, LRP5 cytoplasmic domain bait against brain, HeLa and TE85 prey cDNA libraries
[1] = target: T1, alpha-actinin (ACTN1) (Homo sapiens (Human), UniProt P12814 1-892, limits assumed)
T1 construct: Yeast two-hybrid prey; also called α-actinin
Excerpt: (§1) In order to identify cytoplasmic Zmax1 (LRP5) signaling pathways, the cytoplasmic domain of Zmax1 (LRP5) was subcloned into two bait vectors. The first vector was pDBleu, which was used to screen a brain, and Hela prey cDNA library cloned into the vector pPC86 (Clontech). The second bait vector used was pDBtrp, which was used to screen a cDNA prey library derived from the TE85 osteosarcoma cell line in vector pOP46. Another suitable vector which is widely available, is p86 (Gibco, Iest™ System). Standard techniques known to those skilled in the art were used as described in Fields and Song, 1989 Nature 340: 245-246; U.S. Pat. No. 5,283,173 by Fields and Song; Johnston, 1987 Microbiol. Rev. 51: 458-476; Keegan et al., 1986 Science 231: 699-704; Durfee et al., 1993 Genes Dev. 7: 555-569; Chien et al., 1991 Proc. Natl. Acad. Sci. USA 88: 9578-9582; Fields et al., 1994 Trends in Genetics 10: 286-292; and Gyuris et al., 1993 Cell 75: 791-803. The bait construct and prey cDNA libraries were transformed into yeast using standard procedures.
(§2) The frozen prey library was thawed, and the yeast cells reactivated by growing them in 150 ml YEPD medium with 2% glucose for 2 hrs at 30° C. A filter unit was sterilized with 70% ethanol and washed with sterile water to remove the ethanol. The cell densities of both bait and prey cultures were measured by determining the OD at 600 nm. An appropriate volume of yeast cells that corresponded to a cell number of 1 ml of OD 600=4 of each yeast strain, bait and prey (library) was placed in a 50 ml Falcon tube. The mixture was then filtered through the sterilized filter unit. The filter was then transferred onto a prewarmed YEPD agar plate with the cell side up, removing all air bubbles underneath the filter. Plates were then incubated at 30° C. for 6 hrs. One filter was transferred into a 50 ml Falcon tube, and 10 ml of SD with 2% Glucose was added; cells were resuspended by vortexing for 10 sec. […]

[2] = target: T2, Axin (AXIN) (Homo sapiens (Human), UniProt O15169 1-862, limits assumed)
T2 construct: Yeast two-hybrid prey
Excerpt: as §1, §2

[3] = target: T3, Zyxin (ZYX) (Homo sapiens (Human), UniProt Q15942 2-572, limits assumed)
T3 construct: Yeast two-hybrid prey
T3 sequence: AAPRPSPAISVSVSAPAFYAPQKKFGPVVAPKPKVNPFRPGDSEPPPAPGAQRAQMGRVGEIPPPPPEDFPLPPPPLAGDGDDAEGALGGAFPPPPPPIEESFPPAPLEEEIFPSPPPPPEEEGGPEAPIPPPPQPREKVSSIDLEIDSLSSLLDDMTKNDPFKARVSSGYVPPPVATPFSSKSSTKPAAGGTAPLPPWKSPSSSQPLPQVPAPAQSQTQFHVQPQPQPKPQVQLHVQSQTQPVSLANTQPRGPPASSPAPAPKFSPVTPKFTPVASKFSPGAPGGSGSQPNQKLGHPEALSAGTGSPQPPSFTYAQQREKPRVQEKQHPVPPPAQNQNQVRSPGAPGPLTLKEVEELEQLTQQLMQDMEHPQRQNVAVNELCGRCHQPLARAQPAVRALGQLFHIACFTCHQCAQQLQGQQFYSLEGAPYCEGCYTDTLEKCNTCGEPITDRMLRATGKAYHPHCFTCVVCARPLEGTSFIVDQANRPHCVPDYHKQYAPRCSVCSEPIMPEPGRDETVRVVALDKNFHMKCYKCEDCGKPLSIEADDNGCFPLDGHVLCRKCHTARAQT
Excerpt: as §1, §2

T1 sequence (P12814 whole entry): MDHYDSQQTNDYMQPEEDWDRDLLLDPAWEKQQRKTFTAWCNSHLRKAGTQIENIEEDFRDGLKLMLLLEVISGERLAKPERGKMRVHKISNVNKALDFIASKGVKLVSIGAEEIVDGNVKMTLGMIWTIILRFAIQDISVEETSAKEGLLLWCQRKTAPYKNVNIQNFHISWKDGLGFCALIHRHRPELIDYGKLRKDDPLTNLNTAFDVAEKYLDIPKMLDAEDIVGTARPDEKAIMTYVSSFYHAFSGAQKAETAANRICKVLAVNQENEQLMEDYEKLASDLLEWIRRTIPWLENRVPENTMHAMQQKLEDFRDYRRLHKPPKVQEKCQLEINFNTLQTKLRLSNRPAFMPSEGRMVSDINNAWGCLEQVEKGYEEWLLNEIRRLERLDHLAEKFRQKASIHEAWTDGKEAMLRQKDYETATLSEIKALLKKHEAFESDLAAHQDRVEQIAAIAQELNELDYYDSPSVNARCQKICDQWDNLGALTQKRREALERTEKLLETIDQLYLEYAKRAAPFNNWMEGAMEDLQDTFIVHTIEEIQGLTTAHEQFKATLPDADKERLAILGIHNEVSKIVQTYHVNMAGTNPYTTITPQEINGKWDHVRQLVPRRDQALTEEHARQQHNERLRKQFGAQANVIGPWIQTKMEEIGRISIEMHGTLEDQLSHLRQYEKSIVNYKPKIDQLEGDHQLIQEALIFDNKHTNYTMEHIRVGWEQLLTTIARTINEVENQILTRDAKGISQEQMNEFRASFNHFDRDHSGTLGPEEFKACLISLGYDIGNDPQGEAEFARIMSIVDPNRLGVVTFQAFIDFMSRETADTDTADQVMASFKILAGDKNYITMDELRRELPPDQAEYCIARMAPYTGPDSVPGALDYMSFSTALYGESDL
T2 sequence (O15169 other isoform, or with tags, fused parts or gaps limits assumed): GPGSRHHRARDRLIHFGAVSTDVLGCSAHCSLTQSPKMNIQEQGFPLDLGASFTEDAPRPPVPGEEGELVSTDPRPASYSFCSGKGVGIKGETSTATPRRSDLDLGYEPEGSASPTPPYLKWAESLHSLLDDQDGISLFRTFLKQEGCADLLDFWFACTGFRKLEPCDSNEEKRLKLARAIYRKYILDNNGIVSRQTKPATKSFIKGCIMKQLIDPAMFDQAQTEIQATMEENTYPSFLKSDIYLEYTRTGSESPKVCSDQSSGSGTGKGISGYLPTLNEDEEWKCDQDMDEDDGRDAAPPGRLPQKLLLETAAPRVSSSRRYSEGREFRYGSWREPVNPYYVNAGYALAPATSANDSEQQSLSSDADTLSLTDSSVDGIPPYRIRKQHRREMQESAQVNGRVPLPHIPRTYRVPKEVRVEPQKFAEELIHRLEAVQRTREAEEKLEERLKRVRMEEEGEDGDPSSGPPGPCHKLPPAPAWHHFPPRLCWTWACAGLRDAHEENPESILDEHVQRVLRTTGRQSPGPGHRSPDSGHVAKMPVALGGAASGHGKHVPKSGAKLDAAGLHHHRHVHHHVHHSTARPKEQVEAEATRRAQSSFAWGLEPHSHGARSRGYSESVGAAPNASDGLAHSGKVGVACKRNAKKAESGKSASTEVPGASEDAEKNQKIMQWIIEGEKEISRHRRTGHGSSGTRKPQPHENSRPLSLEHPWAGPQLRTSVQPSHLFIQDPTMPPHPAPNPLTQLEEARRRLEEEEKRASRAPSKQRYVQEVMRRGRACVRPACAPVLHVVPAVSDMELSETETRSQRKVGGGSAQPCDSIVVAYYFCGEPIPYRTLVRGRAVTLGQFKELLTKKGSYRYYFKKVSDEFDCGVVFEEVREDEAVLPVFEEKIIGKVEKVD

- binding result [1]: binds
- binding result [2]: binds
- binding result [3]: binds
B1: Zmax1 (LRP5) cytoplasmic domain bait (entire cytoplasmic domain and a portion of the transmembrane domain) (receptor)
chain: RVVCQRYAGANGPFPHEYVSGTPHVPLNFIAPGGSQHGPFTGIACGKSMMSSVSLMGGRGGVPLYDRNHVTGASSSSSSSTKATLYPPILNPPPSPATDPSLYNMDMFYSSNIPATVRPYRPYIIRGMAPPTTPCSTDVCDSDYSASRWKASKYYLDLNSDSDPYPPPPTPHSQYLSAEDSCPPSPATERSYFHLFPPPPSPCTDSS
notes: Yeast two-hybrid bait; also called cytoplasmic domain of Zmax1 (LRP5); cytoplasmic domain of LRP5
